Legend:
Swiss 3T3 fibroblasts = assay: BrdU incorporation (mitogenesis) in Swiss 3T3 fibroblasts; format: cell-based; details: Swiss 3T3, presence and absence of heparin
Experimental: 6×Histidine-tagged Clone 19-jun protein (FIG. 1A) was expressed in bacteria and purified by metal affinity chromatography as described in Example 5. Assay of BrdU incorporation, a measure of entry of cells into S-phase and therefore of mitogenesis, was performed according to manufacturers instructions (Cell proliferation ELISA, BrdU, Cat. No. 1-647-229, Boehringer-Mannheim, Indianapolis, Ind.). Briefly, 1×10^4 Swiss 3T3 cells per well were plated on gelatin-coated 96-well microtiter plates in complete media (DMEM, 10% FCS, antibiotics), incubated 24 hours, and the media changed to quiescent media for an addition 24 hours (DMEM containing 0.5 mg/ml bovine serum albumin, 1 μg/ml insulin, 5 μg/ml transferrin, antibiotics). The cells were then treated with bFGF or Clone 19-jun protein at the indicated concentrations in the presence of 15 U/ml heparin. 18 hours later, BrdU was added, the cells incubated an additional 4 hours, and assayed as described. […] Heparin alone had no effect, nor did a control protein expressed and purified in the same manner in which the C19 sequence was deleted.

FGFR1c ECD = biological target: T1, FGFR1c ECD (Homo sapiens, UniProt P11362); assay: BIAcore real-time kinetic analysis on immobilized FGFR1c ECD; format: binding; details: in vitro, absence of heparin
T1 construct: human FGFR Ic (residues 1-377); made in house
T1 sequence (P11362 22-377): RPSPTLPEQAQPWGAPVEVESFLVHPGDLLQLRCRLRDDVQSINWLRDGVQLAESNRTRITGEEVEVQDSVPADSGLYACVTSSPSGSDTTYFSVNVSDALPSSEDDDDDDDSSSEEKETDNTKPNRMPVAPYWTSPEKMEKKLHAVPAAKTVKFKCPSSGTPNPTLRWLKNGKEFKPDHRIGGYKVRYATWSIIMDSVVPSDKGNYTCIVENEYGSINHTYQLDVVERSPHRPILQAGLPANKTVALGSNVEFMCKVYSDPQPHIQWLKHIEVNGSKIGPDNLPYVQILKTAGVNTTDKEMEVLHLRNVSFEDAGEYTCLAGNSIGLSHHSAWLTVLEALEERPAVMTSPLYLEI
Experimental: Apparent affinities for immobilized FGFR1c ECD were determined using BIAcore real-time kinetic analysis in the absence of heparin.
Protein representing the linker segments and c-jun leucine zipper without the C19 sequence (FIG. 2) was expressed, purified, and characterized as for C19jun. C19 peptide with an intrapeptide disulfide bond was synthesized, purified by HPLC, and characterized by mass spectroscopy. C19junΔhep protein was prepared by changing human c-jun residues Arg276, Arg279, Lys285, and Lys288 in the leucine zipper domain to glutamines. Expression, purification, and characterization was as for C19jun. […] The extracellular ligand-binding domain of human FGFR Ic (residues 1-377) and human erythropoietin receptor (residues 1-250) were fused to the Fc region of human IgG1, expressed in baculovirus and purified by protein A affinity chromatography. […] PDGF receptor Fc fusion protein was from R&D Systems.

FGFR = FGFR autophosphorylation in Swiss 3T3 cells (anti-FGFR IP, anti-phosphotyrosine blot); format: cell-based; details: 1.0 nM bFGF or 50 nM C19jun, 15 U/ml heparin, 15 minutes
Experimental: (§1) To determine whether C19jun could activate FGF receptors in vivo, Swiss 3T3 cells were treated with basic FGF (bFGF) or purified C19jun protein. Cell extracts were then immunoprecipitated with anti-FGFR antibodies, analyzed by SDS-PAGE and immunoblotted with anti-phosphotyrosine antibodies. Extracts from bFGF and C19jun-stimulated 293 cells expressing FGFR1c were also immunoblotted with phospho-MAP Kinase-specific antibodies.
(§2) Swiss 3T3 fibroblasts, or 293 cells expressing full-length FGFRIc were incubated in quiescing media (DMEM, 1 μg/ml insulin, 5 μg/ml transferrin, 0.5 mg/ml BSA) for 24-48 hrs, and then stimulated with 1.0 nM bFGF or 50 nM refolded C19jun protein in the presence of 15 U/ml heparin for 15 minutes at 37° C. The cells were lysed and aliquots of lysate containing equal amounts of total protein were either analyzed directly by immunoblotting with phospho-MAPKspecific antibodies and anti-total MAPK antisera (New England Biolabs) or immunoprecipitated with anti-FGFR antisera and immunoblotted with anti-phosphotyrosine antibodies (Upstate Biotechnology, Inc.). Both bFGF and C19jun induced FGFR autophosphorylation and MAP kinase phosphorylation.

[1] = system: 293 cells expressing full-length FGFR1c; assay: MAP kinase phosphorylation in 293 cells expressing FGFR1c; format: cell-based; details: 1.0 nM bFGF or 50 nM C19jun, 15 U/ml heparin, 15 minutes
Experimental: as §1, §2

Swiss 3T3 cells [2] = assay: Swiss 3T3 proliferation, WST-1 long term assay; format: cell-based; details: WST-1, 4 successive days, 15 U/ml heparin, FIG. 4
Experimental: Swiss 3T3 cells were plated on gelatin-coated 96-well microtiter plates in quiescent media containing the indicated concentrations of bFGF or C19-jun protein and 15 U/ml heparin and cell number estimated on each of 4 successive days by the WST-1 assay as per manufacturers instructions (Cell proliferation Reagent WST-1, no. 1644807, Boehringer-Mannheim).

human endothelial cells = assay: Proliferation of human endothelial cells; format: cell-based
PC12 cells = assay: PC12 cell neurite outgrowth; format: cell-based
Experimental: 1×10^4 PC12 cells per well were plated on mouse laminin-and-poly-L-lysine-coated 24-well plates in 1 ml of media (RPMI 1640, 10% horse serum, 5% FCS, antibiotics) and stimulated with 1 nM bFGF or 2 nM C19-jun protein in the presence of 15 U/ml heparin for 4 days.

[3] = Binding to heparin agarose beads
Swiss 3T3 cells [4] = assay: Swiss 3T3 mitogenesis with soluble receptor ECD competitors; format: cell-based
Experimental: To further examine the specificity of C19jun for FGFR, Swiss 3T3 cells were stimulated with C19jun in the presence of protein representing the soluble extracellular binding domain (ECD) of various receptors used as binding competitors. The mitogenic activity of C19jun was abolished by pre-incubation of the fusion protein with excess FGFR1c ECD, but was unaffected by incubation with identical concentrations of the closely related PDGF receptor ECD or with erythropoietin receptor ECD. […] Similar results were observed when phosphorylation of MAPK was analyzed in these cells.
Protein representing the linker segments and c-jun leucine zipper without the C19 sequence (FIG. 2) was expressed, purified, and characterized as for C19jun. C19 peptide with an intrapeptide disulfide bond was synthesized, purified by HPLC, and characterized by mass spectroscopy. C19junΔhep protein was prepared by changing human c-jun residues Arg276, Arg279, Lys285, and Lys288 in the leucine zipper domain to glutamines. Expression, purification, and characterization was as for C19jun. […] The extracellular ligand-binding domain of human FGFR Ic (residues 1-377) and human erythropoietin receptor (residues 1-250) were fused to the Fc region of human IgG1, expressed in baculovirus and purified by protein A affinity chromatography. Activity of the fusion proteins was confirmed by binding of [^125I]-labeled ligands. PDGF receptor Fc fusion protein was from R&D Systems.

[5] = system: L6 myoblast cell lines stably expressing FGFR1c; assay: c-fos mRNA expression in L6 myoblasts stably expressing FGFR1c; format: cell-based
control L6 cells = assay: c-fos mRNA expression in control L6 cells that do not express FGFR; format: cell-based
[6] = Swiss 3T3, identical concentration

B1: C19jun: C19 sequence fused via flexible linker to human c-jun leucine zipper (residues 276-314) flanked by cysteines, polyhistidine tag; SEQ ID NO:41 (protein)
chain: MAESGDDYCVLVFTDSAWTKICDWSHFRNGPGGGSGGGSGGGSGGGSGGGSRCGGRIARLEEKVKTLKAQNSELASTANMLREQVAQLKQKVMNHGGCGGSGGHHHHHH
modifications: SyArtificial Sequence
heparin dependence of mitogenic activity (Swiss 3T3 fibroblasts): required for optimal mitogenic activity | binding to immobilized FGFR ECD (FGFR1c ECD): high affinity and specificity | FGFR autophosphorylation (FGFR): induced | MAP kinase phosphorylation [1]: induced | Swiss 3T3 proliferation in long term assay (Swiss 3T3 cells [2]): equal or greater extent than 1 nM bFGF | Swiss 3T3 proliferation in long term assay (Swiss 3T3 cells [2]; listed as C19-jun): as well or better than bFGF | proliferation of human endothelial cells (human endothelial cells): stimulated the proliferation | heparin dependence of morphogenic activity on PC12 cells (PC12 cells): required for the morphogenic activity | neurite outgrowth / PC12 cell differentiation (PC12 cells; 1 nM bFGF or 2 nM C19-jun, 15 U/ml heparin, 4 days): induces PC12 cell differentiation as well or better than bFGF | heparin binding [3]: quantitatively and specifically bound to heparin agarose beads | mitogenic activity after pre-incubation with excess FGFR1c ECD (Swiss 3T3 cells [4]; Swiss 3T3): abolished | mitogenic activity after incubation with PDGF receptor ECD (Swiss 3T3 cells [4]; [6]): unaffected | mitogenic activity after incubation with erythropoietin receptor ECD (Swiss 3T3 cells [4]; [6]): unaffected | c-fos mRNA expression in FGFR-expressing L6 cells [5]: stimulated c-fos mRNA expression | c-fos mRNA expression in control L6 cells (control L6 cells): neither was active
